# Data as given in patent US8691772B2, “HSP60, HSP60 peptides and T cell vaccines for immunomodulation” (Yeda Research and Development Co. Ltd., priority 2005, dated 2014).
# Assays:
# human T cells = experiment: In vivo homing assay of human T cells to bone marrow; set-up: species or system NOD/SCID mice; settings: T cells pretreated (HSP60 1 μg/ml for 1 hr or mAb); 16 hr after injection
# Procedure: In vivo homing assay. Purified human T cells were incubated (1 hr, tissue culture conditions) with HSP60 (1 μg/ml) in tissue culture conditions. The cells were then washed with PBS, and, where indicated, further incubated (30 min, 4° C.) with mouse anti-human CXCR4 mAb (10 μg/3×10^6 cells), anti-human TLR2 or anti-TLR4 mAb (each at 20 μg/ml). The cells were then washed and injected (5×10^6 cells/0.5 ml per mouse) i.v. into the tails of irradiated (375 cGY from a ^60[Co] source), 8-week-old NOD/SCID mice, and the entrance of human T cells into the bone marrow of recipient mice was evaluated as previously described (Kollet et al., 2001). Each tested sample contained 1.5×10^6 cells.
# STAT3 = STAT3 phosphorylation in human T cells; type: cell-based
# Procedure: Western blotting of T-cell lysates. T cells were incubated (24 hr, 37° C.) in starvation medium (RPMI medium without serum). Aliquots (5×10^6/sample) of the starved cells were preincubated (for various intervals) with different concentrations of HSP60 prior to exposure to SDF-1α (100 ng/ml, 10 min, 37° C., tissue culture conditions). These reactions were terminated by freezing the plates (−70° C., 10 min). The plates were thawed, and the cells solubilized by incubating (60 min, 4° C.) in lysis buffer [EDTA (0.5 mM), NaCL (150 mM), NaF (10 nM), Tris pH 7.5 (25 mM), Triton X-100 (1%), PMSF (200 pg/ml), and phosphatase inhibitor cocktail (1%)]. Lysates were cleared by centrifugation (30 min, 14×10^3 rpm, 4° C.), and the resulting supernatants analyzed for protein content. Sample buffer was added, the samples were boiled, and equal amounts of proteins were separated by 10% SDS-PAGE and transferred to nitrocellulose membranes. […] Phosphorylation levels of the 3-5 independent experiments were estimated by densitometry, and an average percentage of phosphorylation±SD was calculated as OD of pERK/tERK, or pPyk2/tPyk2, or pAKT/tAKT, pMLC/tMLC, or pSTAT3/tSTAT3×100%.
# [1] = system: human CD3^+, CD4^+, and CD8^+ T cells; experiment: Cytokine secretion of anti-CD3-activated CD3+, CD4+, CD8+ and CD25-separated T cells; type: cell-based; settings: for secretion of IL-10 and TGF-β: anti-CD3
# Description: Purified T-cell populations. […] In a second round of purification, CD4^+ T cells were separated to CD25^− and CD25^+ populations with magnetically coupled mAb against human CD25 (Miltenyi Biotec; Bergisch Gladbach, Germany).
# CD4^+CD25^+ T cells = experiment: Co-culture of treated CD4+CD25+ T cells with CD4+CD25- T cells; type: cell-based, human
# NF-κB = experiment: Nuclear translocation of NF-κB in T cells; type: cell-based, human
# Procedure: (§1) Western blot analysis of T-cell nuclear extracts. Purified T cells (5×10^6) were preincubated with different concentrations of HSP60 for the indicated periods of time (37° C. in a 7% CO2, humidified atmosphere). […] T cells were lysed in 10 mM HEPES, 1.5 mM MgCl2, 1 mM dithiothreitol (DTT), 1 mM PMSF, 0.5% Nonidet P-40. The lysates were incubated on ice for 10 min and centrifuged at 2000 rpm for 10 min at 4° C. The supernatants (cytoplasmic extracts) were transferred and the pellet (nuclei) was suspended in buffer containing 30 mM HEPES, 450 mM NaCl, 25% Glycerol, 0.5 mM EDTA, 6 mM DTT, 12 mM MgCl2 1 mM PMSF, 10 μg/ml leupeptin, 10 μg/ml pepstatin, 1% phosphatase inhibitor cocktail, and the suspension was incubated on ice for 30 min. The lysates were cleared by centrifugation (30 min, 14×10^3 rpm, 4° C.), and the resulting supernatants analyzed for protein content. For NFATp analysis nuclear extracts were prepared with a NE-PER Nuclear and Cytoplasmic Extraction reagent (Pierce, Rockford, Ill.) according to the manufacturer's protocol. Sample buffer was then added and, after boiling, the samples, containing equal amounts of proteins, were separated on 10% SDS-PAGE gel and transferred to nitrocellulose membranes. The membranes were blocked with TBST buffer containing low-fat milk (5%), Tris pH 7.5 (20 mM), NaCl (135 mM) and Tween 20 (0.1%), and probed with the following mAb in the same buffer: anti-NF-κb (diluted 1:1000), anti-total (t) ERK (diluted 1:20,000), anti-NFATp (diluted 1:500), anti T-bet (diluted 1:1000), anti-GATA-3 (diluted 1:1000), anti-Lamin B (diluted 1:1000). Immunoreactive protein bands were visualized using labeled secondary antibodies and the enhanced ECL system.
# NFATp = NFATp activation in T cells; type: cell-based, human
# Procedure: as §1
# [2] = CD3+ and CD4+ T cells pre-treated 2 hours, washed, anti-CD3 24 hr
# [3] = CD4+CD25+ treated 1 ng/ml 2 hr, co-cultured with CD4+CD25- on anti-CD3, 24 hr
molecule,measurement,setting,value
HSP60: recombinant human heat shock protein 60 (StressGen Biotechnologies) (protein) AKDVKFGADARALMLQGVDLLADAVAVTMGPKGRTVIIEQSWGSPKVTKDGVTVAKSIDLKDKYKNIGAKLVQDVANNTNEEAGDGTTTATVLARSIAKEGFEKISKGANPVEIRRGVMLAVDAVIAELKKQSKPVTTPEEIAQVATISANGDKEIGNIISDAMKKVGRKGVITVKDGKTLNDELEIIEGMKFDRGYISPYFINTSKGQKCEFQDAYVLLSEKKISSIQSIVPALEIANAHRKPLVIIAEDVDGEALSTLVLNRLKVGLQVVAVKAPGFGDNRKNQLKDMAIATGGAVFGEEGLTLNLEDVQPHDLGKVGEVIVTKDDAMLLKGKGDKAQIEKRIQEIIEQLDVTTSEYEKEKLNERLAKLSDGVAVLKVGGTSDVEVNEKKDRVTDALNATRAAVEEGIVLGGGCALLRCIPALDSLTPANEDQKIGIEIIKRTLKIPAMTIAKNAGVEGSLIVEKIMQSSSEVGYDAMAGDFVNMVEKGIIDPTKVVRTALLDAAGVASLLTTAEVVVTEIPKEEKDPGMGAMGGMGGGMGGGMF,homing of human T cells to the bone marrow,human T cells,significantly (P<0.05) decreased their homing to the bone marrow
same,phosphorylation of STAT3,STAT3,induced phosphorylation of STAT3
same,effect on cytokine secretion at doses in the order of 10 ng/ml,[1],did not affect cytokine secretion
same,inhibition of IFN-γ and TNF-α secretion in purified CD4+CD25- T cells,"[1]; 1 ng/ml, 2 hours, anti-CD3 24 hours",completely prevented the inhibition of IFN-γ and TNF-α secretion by HSP60 treatment
same,enhancement of IL-10 secretion,[1]; [2],2-3 fold
same,inhibition of anti-CD3-induced IFN-γ secretion,[1]; [2],about 50%
same,inhibition of anti-CD3-induced TNF-α secretion,[1]; [2],about 50%
same,secretion of IL-10 and TGF-β,"[1]; CD4+CD25- T cells, 1 ng/ml",but not of CD4^+CD25^− T cells
same,cytokine secretion without anti-CD3,"[1]; HSP60 alone, 0.01-1000 ng/ml",did not induce cytokine secretion by the T cells
same,higher concentrations at which cytokine secretion was again affected significantly,[1]; P<0.05,0.1-1 μpg/ml
same,low concentrations with significant effects on cytokine secretion,[1]; P<0.05,0.1 to 1.0 ng/mL
same,cytokine secretion of CD8+ T cells,[1]; anti-CD3-activated,unresponsive to HSP60 at all concentrations tested
same,secretion of IL-10 and TGF-β,"[1]; un-separated CD4+ or CD4+CD25+ T cells, 1 ng/ml",significantly up-regulated the secretion of IL-10 and TGF-β
same,anti-CD3-induced proliferation of CD4+CD25- T cells in co-culture,CD4^+CD25^+ T cells; 24 hours,did not suppress anti-CD3-induced proliferation
same,anti-CD3-induced proliferation of CD4+CD25- T cells in co-culture,CD4^+CD25^+ T cells; 96 hours,significant inhibition of proliferation
same,IFN-γ and TNF-α secretion in co-culture,CD4^+CD25^+ T cells; [3],significantly enhanced the down-regulation of secretion of IFN-γ and TNF-α secretion
same,IL-10 and TGF-β secretion in co-culture,CD4^+CD25^+ T cells; [3],up-regulated the secretion of IL-10 and TGF-β in the co-cultures
same,inhibition of IFN-γ and TNF-α secretion of CD4+CD25- T cells by supernatants of treated Tregs,"CD4^+CD25^+ T cells; HSP60 1 ng/ml, 2 hr, supernatants after 24 hr on anti-CD3",about 30%
same,time at which NF-κB inhibition was apparent,NF-κB; 1 ng/ml,60 min
same,time of peak NF-κB inhibition,NF-κB; 1 ng/ml,120 to 240 min
same,nuclear translocation of NF-κB without anti-CD3,NF-κB; HSP60 alone,did not affect the nuclear translocation of NF-κB
same,concentrations of maximal effects on NF-κB,NF-κB; P<0.01,1 ng/ml or 1 μg/ml
same,time at which NFATp inhibition was apparent,NFATp; 1 ng/ml,60 min
same,time of peak NFATp inhibition,NFATp; 1 ng/ml,120 to 240 min
same,anti-CD3-induced activation and de-phosphorylation of NFATp,NFATp; 1 ng/ml pre-treatment,significant down-regulation of their activation and de-phosphorylation of NFATp
same,NFATp phosphorylation in the absence of anti-CD3,NFATp; HSP60 alone,did not affect NFATp phosphorylation
